Tests used:
[1] = test system: human umbilical vein endothelial cells (HUVECs); assay: WST-1 assay, growth inhibition of HUVEC by released drug; type: cell-based; settings: released drug samples diluted 1:1 in culture medium; fresh bevacizumab 1, 10, 100 µg/mL
Procedure: The long-term efficacy and biological stability of drugs released were evaluated through culture of human umbilical vein endothelial cells (HUVECs), which are cells that are involved in angiogenesis. After culturing HUVECs, they were prepared in 2×10^4 cells/well in a 48-well plate and treated with the long-term released bevacizumab drug samples diluted in 1:1 ratio in a cell culture medium (EBM media containing EGM supplements and 1% P/S) and fresh bevacizumab drug samples by concentration so as to observe cell growth inhibition and safety. For the control of fresh bevacizumab drug samples by concentration, preparation was performed at final concentrations of 1, 10, and 100 µg/mL, diluted in cell culture media.

[2] = Intraocular pharmacokinetic evaluation after intravitreal injection (ELISA of vitreous, retina, aqueous humor); type: in vivo, New Zealand White (NZW) rabbit
Procedure: Bevacizumab drug control, hydrogel (in situ forming hydrogel) in Comparative Example, and hydrogel rod in Example were injected. The rabbits were sacrificed on days 1, 4, 8, 14, 30, 60, 90, and 120. In order to maintain its drug efficacy, the concentration of drug must be maintained from vitreous humor to retina, while the drug may be eliminated to the anterior chamber site. For evaluation, pharmacokinetic analysis of vitreous, retina, and aqueous humor tissues was conducted through ELISA after animal sacrifice and ocular separation by date.
After animal sacrifice and ocular separation by date, pharmacokinetic analysis of vitreous, retina, and aqueous tissues was performed via ELISA. […] The hydrogel rod of Example is a pre-crosslinking matrix, and, after the initial burst release is inhibited by 7 times compared to the control and 3 times compared to the hydrogel of Comparative Example, the drug was continuously released within a certain range and the drug concentration of about 32 µg/mL was maintained on 120 day, satisfying a level above […] which is the drug efficacy threshold of bevacizumab.

bevacizumab
inhibition of HUVEC cell growth (WST-1) [1]: inhibition of cell growth in proportion to the concentration of the drug | initial excess elimination maintained until ([2]; aqueous humor (drainway)): 30 days | elimination curve ([2]; retina): fastest elimination curve | elimination curve ([2]; vitreous): fastest elimination curve
